Non-standard residues stand in square brackets, D forms with d. Primed or numbered codes have the meaning given here. No end group written: not given here. PEG12″ = PEG12 group on the N-terminal Lys
T1: Apelin Receptor (APJ) stably overexpressed in CHO-K1 AGTRL1 Gi cells (human, UniProt P35414 1-380)
T1 sequence (looked up): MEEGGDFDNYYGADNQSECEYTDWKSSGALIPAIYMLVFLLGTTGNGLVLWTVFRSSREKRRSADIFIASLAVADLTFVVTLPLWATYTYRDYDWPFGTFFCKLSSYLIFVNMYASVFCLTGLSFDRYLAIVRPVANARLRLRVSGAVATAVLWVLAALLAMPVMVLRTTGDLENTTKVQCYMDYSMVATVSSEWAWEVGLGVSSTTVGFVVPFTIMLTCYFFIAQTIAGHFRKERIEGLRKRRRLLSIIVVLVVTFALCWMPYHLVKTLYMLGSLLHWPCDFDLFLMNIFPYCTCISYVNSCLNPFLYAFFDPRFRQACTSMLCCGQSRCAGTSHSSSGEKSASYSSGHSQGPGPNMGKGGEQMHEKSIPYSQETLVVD


Experiments:
Assay in all cases: cell-based or functional assay
[1] = target: ProLink tagged human APJ (Apelin Receptor) in CHO-K1 AGTRL1 β-Arrestin cells (human, UniProt P35414 1-380)
[2] = target: T1, Apelin Receptor (APJ) stably …
[3] = target: T1, Apelin Receptor (APJ) stably …; remark: listed apart in the source

Binder	β-Arrestin recruitment, Percent of Apelin-13 Control Activity (10 µM peptide) [1]	cAMP levels, Percent of Pyr-Apelin-13 Control Activity (10 µM peptide, 10 µM forskolin) [2]	IC50, inhibition of forskolin-stimulated cAMP accumulation [3] [nM]
RRMMGMVFQCLEG[dA] [SEQ ID NO 14]	0 % of Apelin-13 control	39 % of Pyr-Apelin-13 control	
RRMMGMVYQCLCG[dA] (cysteine pairing not given here) [SEQ ID NO 10]	3 % of Apelin-13 control	70 % of Pyr-Apelin-13 control	
RRMMGMVFQELCG[dA] [SEQ ID NO 13]	1 % of Apelin-13 control	49 % of Pyr-Apelin-13 control	
MMGMVFQ [SEQ ID NO 46]	0 % of Apelin-13 control	11 % of Pyr-Apelin-13 control	
MMGMVFQS [SEQ ID NO 47]	1 % of Apelin-13 control	-6 % of Pyr-Apelin-13 control	
RRIIGIVFQSLCG[dA] [SEQ ID NO 43]			2070
KRRMMGMVFQSLCGA ((PEG12) on the N-terminal K (position 1); (dA) D-alanine at position 15) [SEQ ID NO 36]	63 % of Apelin-13 control	101 % of Pyr-Apelin-13 control	1600
[PEG12″]KRRIIGIVFQCLCG[dA] (cysteine pairing not given here) [SEQ ID NO 42]	8 % of Apelin-13 control	33 % of Pyr-Apelin-13 control	4380
MMGMVFQSLCG[dA] [SEQ ID NO 49]	1 % of Apelin-13 control	14 % of Pyr-Apelin-13 control	
KRRLLGLVFQSLCGA ((PEG12) on the N-terminal K (position 1); (dA) D-alanine at position 15) [SEQ ID NO 37]	12 % of Apelin-13 control	53 % of Pyr-Apelin-13 control	2500
MMGMVFQSL [SEQ ID NO 48]	1 % of Apelin-13 control	15 % of Pyr-Apelin-13 control	
MRRMMGMVFQCLCGL [SEQ ID NO 7]	91 % of Apelin-13 control	109 % of Pyr-Apelin-13 control	1240
RRMMGMVFQSLCG[dA] [SEQ ID NO 15]	40 % of Apelin-13 control	105 % of Pyr-Apelin-13 control	4490
RRMMGMVEQCLCG[dA] (cysteine pairing not given here) [SEQ ID NO 12]	-1 % of Apelin-13 control	24 % of Pyr-Apelin-13 control	
RRMMGMVAQCLCG[dA] (cysteine pairing not given here) [SEQ ID NO 11]	0 % of Apelin-13 control	49 % of Pyr-Apelin-13 control	
